The values below come from article PMC12797002, “Hydrophobic residues in the α‐synuclein NAC domain drive seed‐competent fibril formation and are targeted by peptide inhibitors” (The Febs Journal, 2025).

Data set [1] has as its system HEK293T αSyn (A53T) CFP/YFP biosensor cells. As to the kind of experiment: Cell seeding assay (CFP/YFP inclusions, FRET flow cytometry). Particulars: 1 μM total or insoluble fraction, TurboFect, 72 h; Fig. 5C,D. It is filed as cell-based. From the text:
HEK293T αSyn (A53T) CFP/YFP biosensor cells (HEK293T parental line, RRID:CVCL_0063) were kindly provided by Dr. Marc Diamond from the University of Texas Southwestern Medical Center (Dallas, TX, USA). The cells were not further authenticated but were routinely tested and confirmed to be mycoplasma‐free using PCR‐based assays. The cells were maintained in complete growth media consisting of 88% Dulbecco's modified Eagle's growth medium (Lonza, Walkersville, MD, USA, Cat. # 12‐604F), supplemented with 10% (v/v) fetal bovine serum (Thermo Fisher Scientific Inc., Cat. # A5256701), 10 mM HEPES (Serana Europe GmbH, Brandenburg, Germany; Cat # BSL‐001‐100ML), 1% (v/v) GlutaMAX™ Supplement (Thermo Fisher Scientific Inc., Cat. # 35050061), and 1% (v/v) Penicillin–Streptomycin Solution (Thermo Fisher Scientific Inc., Cat. # 15140130). Cells were maintained at 37 °C in a humidified incubator with 5% CO2/atmospheric air. […]
Cells were imaged using a high‐content imaging system (Cell Voyager 7000S; Yokogawa, Tokyo, Japan) with a 20× objective. CFP/YFP inclusions of αSyn (A53T) were detected using a 488 nm laser line (Ex = 460–490 nm, Em = 500–550 nm), while Hoechst‐33 342‐stained nuclei were detected using the 405 nm laser line (Ex = 360–400 nm, Em = 410–480 nm). […]
(In general: Flow cytometry measures light scatter and fluorescence of single cells or particles in a stream.)

In data set [2] the test system is αSyn. The settings on record: cited from earlier work. From the text: Building on our findings that the presence of residues 8–11 in NAC peptides, corresponding to αSyn 68–71, is necessary for efficient nucleation and aggregation, we investigated whether disrupting this hydrophobic region could inhibit full‐length αSyn aggregation. Truncating these residues abolished aggregation, and peptides containing them (e.g., NAC16, NAC11) aggregated rapidly (Fig. 1). To test whether targeting this site could suppress aggregation, we selected a previously validated inhibitor peptide based on the KISVRV sequence. This segment mimics the 70–75 region of αSyn, a hydrop ...

A short description of data set [3]: ThT aggregation kinetics and AFM/TEM imaging of NAC peptides. It is filed as physicochemical. The procedure:
NAC peptides stored at −80 °C were thawed on ice and centrifuged at 12 100 g for 45 s. A reaction mixture (40 μL) was prepared on ice containing 100 μM NAC peptide, either alone or in combination with inhibitor peptides at a 1 : 2 molar ratio, along with 15 μM ThT (Sigma‐Aldrich, Burlington, MA, USA; Cat. # T3516‐5G) in 1× PBS (pH 7.2). This mixture was then dispensed into a clear‐bottom, black 384‐well plate (Revvity, Waltham, MA, USA), and the plate was sealed with a TopSealA‐PLUS (Revvity) to prevent evaporation.
The aggregation kinetics was monitored on an EnSpire Multimode Plate Reader (Revvity) at 37 °C with a constant agitation of 1000 rpm. To prevent condensation in the assay plate, the upper heater temperature in the plate reader was set to 2 °C higher than the lower heater temperature. ThT (Ex: 460–490 nm, Em: 500–550 nm) fluorescence readings were recorded every 5–10 min for 48–72 h. The aggregation lag time was determined by fitting a Boltzmann sigmoidal equation to the fluorescence data in OriginPro 2024 (OriginLab Corporation, Northampton, MA, USA).
NAC peptide aggregates, collected after 48 h of the aggregation assay, were dropped onto a freshly cleaved 10 mm AFM mica disc (Ted Pella, Inc., Redding, CA, USA) and air‐dried for 10 min at room temperature. The mica discs were washed five times with deionized water and then dried for 10–15 min at room temperature. AFM imaging was performed as described, using the […] AIR probe (tip radius: 2 nm, spring constant: 0.4 N/m).
Samples were dropped on glow‐discharged carbon‐coated copper grids and negatively stained with 2% uranyl acetate. Electron microscopy was performed on a Tecnai G2 F20 microscope (FEI Technologies, Hillsboro, OR, USA) with an Eagle 4K CCD camera (FEI Technologies) or a CM100 TWIN Transmission Electron Microscope (Philips, Amsterdam, Netherlands) equipped with a side‐mounted Veleta Camera (Olympus, Tokyo, Japan) and processed in the iTEM software suite (Olympus). After bringing the images to 2048 × 2048 pixels, the pixel size at the specimen level was 1.14 nm. Approximately 20 micrographs of each specimen were recorded and evaluated.

Data set [4] concerns the target T1, monomeric αSyn (Homo sapiens, UniProt P37840, A53T).
T1 construct: made in house
Nature of the data set: In vitro seeding assay with preformed fibrils (ThT, dot blot, Coomassie gel). Format: biochemical. The procedure:
For the in vitro seeding assay, αSyn (100 μM), NAC35 (100 μM), NAC16 (200 μM), and NAC11 (200 μM) peptides were aggregated without ThT for 72–96 h. Fibril formation was confirmed by mixing 10 μL of the aggregated sample with 15 μM ThT and measuring fluorescence using an EnSpire Multimode Plate Reader (Revvity). Aggregates were then centrifuged to separate insoluble fractions as described above.
αSyn (100 μM) was incubated with 25 μM insoluble fractions (preformed fibrils) of αSyn, NAC35, NAC16, and NAC11 in a 100–150 μL volume per well of a 96‐well ViewPlate in the presence of 50 μM ThT. The aggregation kinetics were monitored on an EnSpire Multimode Plate Reader (Revvity) at 37 °C with a constant agitation of 1000 rpm. ThT fluorescence was recorded every 5–10 min for over 60–65 h. After aggregation, the contents of each well were collected, and insoluble fractions were isolated by centrifugation. These fractions were subsequently analyzed using dot blot analysis and Coomassie gel staining.
The samples were mixed with 2× Laemmli buffer [62.5 mM Tris/HCl (pH 6.8), 25% (w/v) glycerol, 2% SDS, and 0.01% Bromophenol Blue, supplemented with 5% (v/v) 2‐mercaptoethanol] and boiled at 95 °C for 5 min. The samples were then subjected to electrophoresis using Mini‐PROTEAN TGX 4–20% Precast gels (Bio‐Rad, Hercules, CA, USA, Cat. # 4561095) in Tris/glycine/SDS running buffer (Bio‐Rad). Gels were fixed in 50% methanol (v/v) and 10% acetic acid (v/v) for 1 h, stained with Coomassie Brilliant Blue R‐250 Staining Solution (Bio‐Rad, Cat. # 1610436EDU) for 12 h at 4 °C with gentle agitation, and destained in deionized water. Gel images were acquired using a ChemiDoc MP imaging system (Bio‐Rad), and densitometry was performed using the IMAGEJ software (RRID: SCR_003070; Bethesda, MD, USA).
Five μL of the sample (2.5 μL first, allowed to dry completely, then another 2.5 μL) was spotted onto a nitrocellulose membrane (Bio‐Rad, Cat. # 1620147), pre‐divided into uniform circular grids, and allowed to dry for 10 min at room temperature. The membrane was blocked for 1 h with 5% bovine serum albumin (BSA) in 1× Tris‐buffered saline with 0.05% Tween® 20 (TBST), followed by 3× washes with TBST. The membrane was then incubated for 1 h with anti‐α‐Synuclein (D37A6) rabbit monoclonal antibody (Cell Signaling Technology, Inc., Danvers, MA, USA, Cat. # 4179, RRID: AB_1904156), which recognizes an epitope surrounding Glu105 in the C‐terminal region of αSyn, and was used at a 1 : 2000 dilution in 5% BSA/TBST. After 3× washes with TBST, the blot was incubated with Alexa Fluor™ 647 Goat anti‐Rabbit IgG (Thermo Fisher Scientific; Cat. # A‐21245) at a 1 : 5000 dilution for 1 h. The blot was imaged using the ChemiDoc MP imaging system (Bio‐Rad), and densitometry was performed using IMAGEJ.

Data set [5] in a line: UV-Vis spectrophotometric analysis of soluble and insoluble fractions. The settings on record: 100 μM peptide, 48 h incubation without ThT, 65 000 g 1 h, 1× PBS pH 7.2, spectra 400–600 nm; means of 3 replicates. Format: physicochemical. The protocol: To fractionate aggregated samples (recombinant αSyn or NAC peptides), 20% of the aggregation mixture was set aside as the ‘total fraction’. The remaining sample was centrifuged at room temperature at 65 000 g for 1 h. The supernatant was collected as the ‘soluble fraction’ and transferred to a fresh tube. The pellet was resuspended in 80 μL of 1× PBS (pH 7.2) and centrifuged at 65 000 g for 1 h. After removing the supernatant, the pellet was resuspended in 8 μL of 1× PBS (pH 7.2), yielding a 10× concentrated ‘insoluble fraction’.
NAC peptides (100 μM) were incubated without ThT for 48 h to allow aggregation. The resulting mixtures were centrifuged at 65 000 g for 1 h to separate the soluble and insoluble fractions, as outlined above. Insoluble fractions were resuspended in an equal volume of 1× PBS (pH 7.2) as the soluble fractions. UV–Vis absorption spectra were recorded from 400 to 600 nm using an EnSpire Multimode Plate Reader (Revvity) with a resolution of 10 nm.

A short description of data set [6]: ANS assay of NAC peptide aggregation at different pH. Format: physicochemical. The settings on record: ANS fluorescence, 100 μM peptide, 40 μM ANS, 1× PBS, 1000 rpm, n = 3. The protocol:
A 40‐μL reaction mixture was prepared on ice containing 100 μM NAC peptides and 40 μM 8‐anilino‐1‐naphthalenesulfonic acid (ANS; Sigma‐Aldrich, Cat. # A1028‐5G) in 1× PBS at pH 4.2, 7.2, or 8.0. The aggregation kinetics were monitored on an EnSpire Multimode Plate Reader (Revvity) at 37 °C with a constant agitation of 1000 rpm. ANS fluorescence readings (Ex: 390 nm, Em: 475 nm) were recorded every 5–10 min for 48–72 h. The lag time of aggregation was determined by fitting a Boltzmann sigmoidal equation, as described in the previous section.

Regarding KISVRVRRRRRR [PB], the “reduction of seed competency of αSyn fibrils, ranking” value in data set [1] was “most effective”.
As for KISVRV, in data set [2], the “effect on preformed αSyn oligomers” value is recorded as “dissolve preformed oligomers” and the “effect on αSyn fibril formation” value is on record as “inhibit αSyn fibril formation”.
As to “NAC11: truncated NAC peptide corresponding to αSyn 68–78, the minimal toxic core (GAVVTGVTAVA)”, the “aggregation (ThT kinetics)” value in data set [3] (100 μM peptide, 15 μM ThT, 1× PBS pH 7.2, 37 °C, 1000 rpm, 48–72 h, ThT fluorescence, n = 3) is given as “readily underwent aggregation”. The “lag time of aggregation compared with NAC35” value in data set [3] (ThT readings 0–10 h, Boltzmann sigmoidal fit, 100 μM peptide, PBS pH 7.2, 37 °C, n = 3) is recorded as “shorter lag time of aggregation than NAC35”. For the same substance, the “aggregate morphology (AFM and TEM)” value in data set [3] (after 48 h of aggregation) is on record as “dense, sticky bundles lacking elongated tangles”. In data set [3] (summary table), the “Key observations: fibril formation and stability” value is on record as “forms unstable fibrils prone to precipitation”; the “Key observations: nucleation” value was “Rapid nucleation”. Moreover, the “seeding of αSyn aggregation (effect on lag time) in words” value in data set [4] (100 μM αSyn + 25 μM preformed fibrils, ThT) is “fail to seed αSyn aggregation”. In addition, in data set [4] (insoluble fractions of seeded αSyn, n = 2), the “αSyn dimerization (dimer-to-monomer band ratio, Coomassie gel)” value is recorded as “did not promote dimerization or aggregation”. Further, the “Key observations: seeding of αSyn aggregation” value in data set [4] (summary table) is “lacks seeding ability”. Also, the “solubility: UV–Vis absorption of soluble and insoluble fractions” value in data set [5] is “clear increase in absorbance in the insoluble fraction”. Further, the “lag time at acidic pH compared with neutral pH” value in data set [6] (acidic (pH 4.5 in legend, pH 4.2 in method) vs pH 7.2, 37 °C) is “longer lag times”. Further, in data set [6] (pH 8.0 vs pH 7.2, 37 °C), the “lag time at basic pH compared with neutral pH” value is listed as “longer lag times”.
